# Measurements reported in the supplement of paper PMC10724198.
# ± gives the standard deviation of the averaged measurements.
# Tested on: Saccharomyces cerevisiae
# Experiment: protein stability index of tFT-peptide fusion (C-terminal peptide) (PSI (0-1 scale)); higher = more stable (slower turnover)
# Settings: genetic background: wild type; temperature: 30 C
# Method: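 Multiplexed protein stability (MPS) profiling in S. cerevisiae. Random 12-aa peptides (tFT-X12 library) are fused to the C-terminus of a sfGFP-mCherry tandem fluorescent timer, after mCherry and a GGGS linker. Cells are FACS-sorted into 8 mCherry/sfGFP bins and deep-sequenced. The protein stability index (PSI) is the read-weighted bin average, scaled from 0 (unstable) to 1 (stable). Only peptides with >10 reads are reported; cells were grown at 30 °C in SC-His with glucose.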
# 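Note: PSI is a weighted mean of sequencing reads over stability bins, variants kept only with over 10 reads, mCherry proximal and sfGFP distal, peptide attached via GGGS linker.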
row,Sequence,protein stability index
1,EPNEKEKNKEVK,0.704 ± 0.0079
2,EPPLPEPPLSRS,0.705 ± 0.023
3,EQDDGARMIRRV,0.683 ± 0.027
4,EQDLSTKVKRST,0.65 ± 0.12
5,ERGAEGKKEPEK,0.6534 ± 0.0061
6,ERGGGRRRLSNA,0.656 ± 0.062
7,ERGRKGGAGARD,0.6439 ± 0.0047
8,ERINFSRRDFDC,0.805 ± 0.059
9,ERKNRKIRREKK,0.774 ± 0.16
10,ERLLLGLNRRLG,0.643 ± 0.055
11,ERLLMLSGLRRA,0.779 ± 0.1
12,ERLRLVPRKGLL,0.714 ± 0.048
13,ERLRSDSLSYDI,0.714 ± 0.052
14,ERSWQEKGVVRG,0.699 ± 0.06
15,ERVGLISSRRGC,0.696 ± 0.014
16,ERYRDVPVTSNR,0.724 ± 0.013
17,ESALPFLYSLSG,0.703 ± 0.021
18,ESEGSGVGACGG,0.681 ± 0.02
19,ESGPQWLGTFVT,0.733 ± 0.0094
20,ESGTVINKNSNK,0.6661 ± 0.0054
21,ESQGYGSQAKLA,0.694 ± 0.028
22,ESVPPILGQDPL,0.773 ± 0.035
23,ETGMSHHINRIW,0.752 ± 0.054
24,ETKKEETKRWRR,0.6789 ± 0.0025
25,ETVFESFEVKCG,0.68 ± 0.022
26,ETVRPYSPMRPG,0.674 ± 0.016

row,Sequence,protein stability index
1,EVCLTLTTADGH,0.68826 ± 0.00011
2,EVEKKKKKKNNK,0.663 ± 0.04
3,EVGTSGTWPGSV,0.714 ± 0.013
4,EVLLVHWINPNA,0.687 ± 0.047
5,EVMGGANDCGVV,0.689 ± 0.012
6,EVRLGKDKANRI,0.691 ± 0.067
7,EVRSDSFFKCEG,0.6606 ± 0.0046
8,EVRTRSSRIHRI,0.709 ± 0.082
9,EVYAGGESDVMS,0.637 ± 0.029
10,EWCGSLVVWTGG,0.668 ± 0.018
11,EWGKCGRGLYGC,0.666 ± 0.033
12,EWPVGLLREGLG,0.6177 ± 0.0016
13,EWVKFCFPIVQS,0.651 ± 0.048
14,EYKIKSIERRKK,0.73 ± 0.04
15,EYQGARAAGQSL,0.678 ± 0.02
16,FACVLVLFPFFL,0.641 ± 0.099
17,FAFWGGHSWLSC,0.791 ± 0.035
18,FAGNRDQEEERK,0.706 ± 0.022
19,FALPSASHFPVP,0.7289 ± 0.0046
20,FAPRRDPMQVQY,0.6744 ± 0.0032
21,FASIESVENIEM,0.709 ± 0.07
22,FAVLGGGVGGGG,0.683 ± 0.043
23,FCCVAPLALPRM,0.686 ± 0.013
24,FCFLAFLKTPKS,0.58 ± 0.038
25,FCPEGGYSVFYL,0.719 ± 0.019
26,FCPPMPSVIALH,0.649 ± 0.024

row,Sequence,protein stability index
1,FCRFCEFIFIFL,0.499 ± 0.056
2,FCSCLCGGEFVR,0.69 ± 0.03
3,FCSPPTLPPSPS,0.732 ± 0.024
4,FCVFVGSSLVGF,0.659 ± 0.019
5,FCVQRWWGEGGH,0.6176 ± 0.0017
6,FDFISHLYWSIV,0.582 ± 0.011
7,FDLPPCVPRARP,0.767 ± 0.099
8,FDLTFPPPPLPF,0.719 ± 0.052
9,FDPTGPIGMRPT,0.653 ± 0.0017
10,FDVLGPRVVSWV,0.633 ± 0.093
11,FEAVDSLFMLVL,0.686 ± 0.034
12,FEFGGGIRGSLG,0.679 ± 0.048
13,FEIVARTYNVDT,0.666 ± 0.023
14,FESRGEPPDIQV,0.668 ± 0.049
15,FESTIKNINNSI,0.714 ± 0.011
16,FFAFLLRSPSTS,0.711 ± 0.064
17,FFFFPLLSVPDR,0.6101 ± 0.0026
18,FFFGFFSVLSLG,0.606 ± 0.089
19,FFFPGLLVPLFP,0.727 ± 0.025
20,FFLPPPPPPPPL,0.677 ± 0.015
21,FFLPTLQLTPYL,0.795 ± 0.19
22,FFMPRCCSLALE,0.644 ± 0.047
23,FFSHSAPAPFPL,0.692 ± 0.017
24,FFVFFPLGGFWL,0.668 ± 0.085
25,FFVGFASLRLVL,0.5517 ± 0.0046
26,FFVVAPSPSPRL,0.761 ± 0.0073

row,Sequence,protein stability index
1,FFYYPSFLPSPL,0.685 ± 0.011
2,FGFIEGKRLGIT,0.62 ± 0.041
3,FGFRLFLPSFSA,0.6433 ± 0.0029
4,FGGGGGGGLLWC,0.739 ± 0.071
5,FGGLLFTRFGWE,0.802 ± 0.056
6,FGLARGMFFLTV,0.629 ± 0.056
7,FGLCRSLESRQF,0.6606 ± 0.0026
8,FGLPPGNWSSGH,0.782 ± 0.028
9,FGNVLISMRNRL,0.834 ± 0.11
10,FGPLFSEDTRKV,0.703 ± 0.076
11,FGRFVLSCFDRK,0.661 ± 0.019
12,FGRGGGGFLTLV,0.647 ± 0.0034
13,FGSCVVVRRVGF,0.619 ± 0.056
14,FGVHCSSPTSGG,0.6684 ± 0.0013
15,FGVTRSPLDPLF,0.665 ± 0.043
16,FGWEGGEEMAGG,0.788 ± 0.0097
17,FHGGRGLLLGMN,0.649 ± 0.077
18,FIPPPLALPFYS,0.674 ± 0.056
19,FKCWAGVRCGMV,0.611 ± 0.013
20,FKLVPCLGPSHF,0.741 ± 0.047
21,FLAGGRFLCIVV,0.593 ± 0.098
22,FLCPGELSYFCV,0.666 ± 0.03
23,FLFRSFACALPS,0.522 ± 0.0081
24,FLFSYIEGSPNP,0.721 ± 0.073
25,FLFWFLFFCSSR,0.49 ± 0.022
26,FLGGVGGLVLIG,0.6672 ± 0.0047

row,Sequence,protein stability index
1,FLHPLTPSPPLA,0.711 ± 0.096
2,FLHPSPIPPPLP,0.7092 ± 0.0012
3,FLLKKVLCINWQ,0.545 ± 0.0028
4,FLLLSAGERCWD,0.694 ± 0.085
5,FLLPLKCRSTTN,0.712 ± 0.046
6,FLLPPASLSLPP,0.7074 ± 0.0034
7,FLPFRPFPPFSA,0.621 ± 0.0064
8,FLPPSRFSPLRL,0.708 ± 0.11
9,FLSEFFMPSPFP,0.745 ± 0.097
10,FLSFIALLPFTS,0.6748 ± 0.0021
11,FMACGVNIELRV,0.643 ± 0.0088
12,FNCCSYTSPASG,0.649 ± 0.015
13,FNEKNKKSTLER,0.652 ± 0.043
14,FNIRDKVKRGAL,0.666 ± 0.008
15,FNTRDTFLYTCR,0.789 ± 0.11
16,FPALPPPLPQPP,0.585 ± 0.031
17,FPCAPFLLLDVS,0.663 ± 0.0029
18,FPDPTPNLRPPP,0.636 ± 0.034
19,FPFFLPMASLFC,0.559 ± 0.018
20,FPFWRLYNLELL,0.492 ± 0.022
21,FPGLFLFVLLPG,0.505 ± 0.013
22,FPGVGARAGVGV,0.697 ± 0.027
23,FPHPPPGPRALH,0.691 ± 0.16
24,FPLSLCPHRPSL,0.716 ± 0.034
25,FPMHFRVRCRPV,0.62 ± 0.045
26,FPPPLPPRLPPP,0.702 ± 0.0061

row,Sequence,protein stability index
1,FPPPPPPLTVLP,0.728 ± 0.054
2,FPPPPTHPASSP,0.691 ± 0.027
3,FPRHPPPFPRPT,0.681 ± 0.031
4,FPVLFSCGYFPL,0.792 ± 0.04
5,FPWISPCCFTFP,0.64 ± 0.042
6,FPYLLCPLFPWP,0.665 ± 0.015
7,FQGKRTKQEGVK,0.692 ± 0.071
8,FRASLPRVPFSS,0.695 ± 0.11
9,FRDVRFSSRVPF,0.786 ± 0.07
10,FRGATRPHSGRS,0.676 ± 0.048
11,FRIFGFLVCPIM,0.6257 ± 0.0038
12,FRLLFSFFWGYV,0.595 ± 0.033
13,FRLLLLKIKSEQ,0.619 ± 0.034
14,FRMLSRMKEILD,0.634 ± 0.052
15,FRRARRLRWFGG,0.637 ± 0.03
16,FRRLVTGVLSIF,0.559 ± 0.028
17,FRRWHPPFFLFP,0.713 ± 0.04
18,FRWLLVAGGWGE,0.486 ± 0.024
19,FRYRLACRPIYQ,0.616 ± 0.038
20,FSAFWLACFFGV,0.717 ± 0.062
21,FSEKLLRSSVYR,0.639 ± 0.19
22,FSFNGMTRNCLR,0.715 ± 0.014
23,FSGGCSVHGLIS,0.612 ± 0.071
24,FSGSSFNGLCSF,0.701 ± 0.018
25,FSLHTSLLPSVP,0.787 ± 0.14
